Results on one molecule are retold here after publication PMC8835902, “DNA Polymerase-Parental DNA Interaction Is Essential for Helicase-Polymerase Coupling during Bacteriophage T7 DNA Replication” (International Journal of Molecular Sciences, 2022).

The target in test [1] is T1, WTgp5-trx complex (T7 gp5 DNA polymerase D5A, E7A with thioredoxin) (bacteriophage T7 | , UniProt P00581 1-704; P0AA25 1-109 = thioredoxin, D5A | E7A).
T1 construct: gp5 in pET15b, trxA in pRSFDuet; no tag is mentioned and purification was by heparin and ion exchange; also called DNA-WTgp5; source: E. coli BL21 (DE3), co-expressed, purified (Heparin HP, MonoQ)
The test can be described thus: native gel or EMSA; supershift: 10 nM fork DNA (2 gaps) pre-incubated with gp5-trx variants (60-100 nM) 15 min at 25 °C, then rising amounts of hexameric EQgp4, 15 min at 25 °C; 20 mM Hepes pH 7.5, 1 mM EDTA, 100 mM KCl, 0.1 mM βME, 5% glycerol, 0.10 mg/mL BSA; 4% polyacrylamide gel; fitted to the Hill equation. The note with it: both partners purified.

Test [2] concerns the target T2, K3Dgp5-trx complex (T7 gp5 K545D, K549D, K553D with thioredoxin) (bacteriophage T7 | , UniProt P00581 1-704; P0AA25 1-109 = thioredoxin, D5A | E7A | K545D | K549D | K553D).
T2 construct: bacteriophage T7 gp5 DNA polymerase (D5A, E7A) with the positively charged cleft mutations K545D, K549D, K553D; Mutagenesis on the plasmid encoding WTgp5 (D5A, E7A); also called DNA-K3Dgp5; source: E. coli BL21 (DE3), co-expressed, purified (Heparin HP, MonoQ)
The test is described as above. The note with it: both partners purified.

B1: T7 gp4 helicase-primase, active site mutant E343Q (enzyme, bacteriophage T7, UniProt P03692 1-566, looked up)
chain: MDNSHDSDSVFLYHIPCDNCGSSDGNSLFSDGHTFCYVCEKWTAGNEDTKERASKRKPSGGKPMTYNVWNFGESNGRYSALTARGISKETCQKAGYWIAKVDGVMYQVADYRDQNGNIVSQKVRDKDKNFKTTGSHKSDALFGKHLWNGGKKIVVTEGEIDMLTVMELQDCKYPVVSLGHGASAAKKTCAANYEYFDQFEQIILMFDMDEAGRKAVEEAAQVLPAGKVRVAVLPCKDANECHLNGHDREIMEQVWNAGPWIPDGVVSALSLRERIREHLSSEESVGLLFSGCTGINDKTLGARGGEVIMVTSGSGMGKSTFVRQQALQWGTAMGKKVGLAMLQESVEETAEDLIGLHNRVRLRQSDSLKREIIENGKFDQWFDELFGNDTFHLYDSFAEAETDRLLAKLAYMRSGLGCDVIILDHISIVVSASGESDERKMIDNLMTKLKGFAKSTGVVLVVICHLKNPDKGKAHEEGRPVSITDLRGSGALRQLSDTIIALERNQQGDMPNLVLVRILKCRFTGDTGIAGYMEYNKETGWLEPSSYSGEEESHSESTDWSNDTDF
notes: bacteriophage T7 gp4 helicase-primase, full-length, with E343Q; modified pET28a with histidine tags and a PreScission site; Added as 'hexameric EQgp4' in the EMSA; also called EQgp4; E343Q gp4; source: E. coli C3013I (T7 Express lysY/Iq), purified (Histrap, MonoQ)
B1: the “Kd with fork DNA (gp4 on fork DNA pre-bound to gp5-trx)” value in test [1] was 8 ± 1 nM; in test [2], 6 ± 1 nM.
